Results from patent US20210388112A1.

Target: T1, peptide containing GA-pyridine (Biotin-Gly-Ala-Gly-(GA-pyridine)-Gly-Ala-CONH2)
T1 chain: GAGXGA
Assay: SPR (Biacore T200), peptide immobilised on sensor chip SA, 25 C

Kd: 0.0161 µM
B1: cyclic Y9-scFv cyclized by sortase (scFv)
scFv: GGGSHMAQVKLQQSGPSLVKPSQTLSLTCSVTGDSITSGYWNWIRKFPGNKFEYLGYISYSGRTYYNPSLKSRISITRDTSKNQYYLQLNSVTTEDTATYYCSRPYYRYDYAIDYWGQGTTVTVSSGGGGSGGGGSGGGGSDIELTQSPAIMSASLGEQVTMTCTASSSVSSSYLHWYQQKPGSSPKLWIYSTSNLASGVPARFSSSGSGTSYSLTISRMEAEDAATYYCQQSWKAPYTFGGGTKLEIKRAAAGTHHHHHHLPET
modifications: not checked
